Starred links: 1 amine or outer side, 2 acyl side, 3 side chain; linkers in the order of their positions; H or OH if unused. Non-standard residues stand in square brackets, D forms with d. Groups on a side chain read outwards from the residue. No end group written: not given here. *: point of attachment. C20 diacid = O=C(O)CCCCCCCCCCCCCCCCCCC(=O)*; C18 diacid = O=C(O)CCCCCCCCCCCCCCCCC(=O)*; γGlu = O=C(O)[C@H](CCC(=O)[*:2])N[*:1]; αMeF = C[C@](N)(Cc1ccccc1)C(=O)O; AEEA = NCCOCCOCC(=O)O; Aib = CC(C)(N)C(=O)O
B1: Peptide 142 (peptide)
peptide: H[Aib]QGTFTSDVSK[αMeF]LDSK([AEEA-AEEA-γGlu-C18 diacid])RARDFVAWLLE[Aib]G-OH
modifications: N-terminus assumed
SMILES: CC(C)C[C@H](NC(=O)[C@H](Cc1c[nH]c2ccccc12)NC(=O)[C@H](C)NC(=O)[C@@H](NC(=O)[C@H](Cc1ccccc1)NC(=O)[C@H](CC(=O)O)NC(=O)[C@H](CCCNC(=N)N)NC(=O)[C@H](C)NC(=O)[C@H](CCCNC(=N)N)NC(=O)[C@H](CCCCNC(=O)COCCOCCNC(=O)COCCOCCNC(=O)CC[C@H](NC(=O)CCCCCCCCCCCCCCCCC(=O)O)C(=O)O)NC(=O)[C@H](CO)NC(=O)[C@H](CC(=O)O)NC(=O)[C@H](CC(C)C)NC(=O)[C@](C)(Cc1ccccc1)NC(=O)[C@H](CCCCN)NC(=O)[C@H](CO)NC(=O)[C@@H](NC(=O)[C@H](CC(=O)O)NC(=O)[C@H](CO)NC(=O)[C@@H](NC(=O)[C@H](Cc1ccccc1)NC(=O)[C@@H](NC(=O)CNC(=O)[C@H](CCC(N)=O)NC(=O)C(C)(C)NC(=O)[C@@H](N)Cc1c[nH]cn1)[C@@H](C)O)[C@@H](C)O)C(C)C)C(C)C)C(=O)N[C@@H](CC(C)C)C(=O)N[C@@H](CCC(=O)O)C(=O)NC(C)(C)C(=O)NCC(=O)O
B2: Peptide 143 (peptide)
peptide: H[Aib]QGTFTSDVSK[αMeF]LDSK([AEEA-AEEA-γGlu-C18 diacid])RARDFVQWLLE[Aib]G-OH
modifications: N-terminus assumed
SMILES: CC(C)C[C@H](NC(=O)[C@H](Cc1c[nH]c2ccccc12)NC(=O)[C@H](CCC(N)=O)NC(=O)[C@@H](NC(=O)[C@H](Cc1ccccc1)NC(=O)[C@H](CC(=O)O)NC(=O)[C@H](CCCNC(=N)N)NC(=O)[C@H](C)NC(=O)[C@H](CCCNC(=N)N)NC(=O)[C@H](CCCCNC(=O)COCCOCCNC(=O)COCCOCCNC(=O)CC[C@H](NC(=O)CCCCCCCCCCCCCCCCC(=O)O)C(=O)O)NC(=O)[C@H](CO)NC(=O)[C@H](CC(=O)O)NC(=O)[C@H](CC(C)C)NC(=O)[C@](C)(Cc1ccccc1)NC(=O)[C@H](CCCCN)NC(=O)[C@H](CO)NC(=O)[C@@H](NC(=O)[C@H](CC(=O)O)NC(=O)[C@H](CO)NC(=O)[C@@H](NC(=O)[C@H](Cc1ccccc1)NC(=O)[C@@H](NC(=O)CNC(=O)[C@H](CCC(N)=O)NC(=O)C(C)(C)NC(=O)[C@@H](N)Cc1c[nH]cn1)[C@@H](C)O)[C@@H](C)O)C(C)C)C(C)C)C(=O)N[C@@H](CC(C)C)C(=O)N[C@@H](CCC(=O)O)C(=O)NC(C)(C)C(=O)NCC(=O)O
B3: Peptide 138 (peptide)
peptide: H[Aib]QGTFTSDVSK[αMeF]LDSK([γGlu-γGlu-AEEA-AEEA-γGlu-γGlu-C18 diacid])RAQDFVRWLLE[Aib]G-OH
modifications: N-terminus assumed
SMILES: CC(C)C[C@H](NC(=O)[C@H](Cc1c[nH]c2ccccc12)NC(=O)[C@H](CCCNC(=N)N)NC(=O)[C@@H](NC(=O)[C@H](Cc1ccccc1)NC(=O)[C@H](CC(=O)O)NC(=O)[C@H](CCC(N)=O)NC(=O)[C@H](C)NC(=O)[C@H](CCCNC(=N)N)NC(=O)[C@H](CCCCNC(=O)CC[C@H](NC(=O)CC[C@H](NC(=O)COCCOCCNC(=O)COCCOCCNC(=O)CC[C@H](NC(=O)CC[C@H](NC(=O)CCCCCCCCCCCCCCCCC(=O)O)C(=O)O)C(=O)O)C(=O)O)C(=O)O)NC(=O)[C@H](CO)NC(=O)[C@H](CC(=O)O)NC(=O)[C@H](CC(C)C)NC(=O)[C@](C)(Cc1ccccc1)NC(=O)[C@H](CCCCN)NC(=O)[C@H](CO)NC(=O)[C@@H](NC(=O)[C@H](CC(=O)O)NC(=O)[C@H](CO)NC(=O)[C@@H](NC(=O)[C@H](Cc1ccccc1)NC(=O)[C@@H](NC(=O)CNC(=O)[C@H](CCC(N)=O)NC(=O)C(C)(C)NC(=O)[C@@H](N)Cc1c[nH]cn1)[C@@H](C)O)[C@@H](C)O)C(C)C)C(C)C)C(=O)N[C@@H](CC(C)C)C(=O)N[C@@H](CCC(=O)O)C(=O)NC(C)(C)C(=O)NCC(=O)O
B4: Peptide 136 (peptide)
peptide: H[Aib]QGTFTSDVSK[αMeF]LDSK([γGlu-γGlu-AEEA-AEEA-γGlu-γGlu-C18 diacid])RARDFVRWLLE[Aib]G-OH
modifications: N-terminus assumed
SMILES: CC(C)C[C@H](NC(=O)[C@H](Cc1c[nH]c2ccccc12)NC(=O)[C@H](CCCNC(=N)N)NC(=O)[C@@H](NC(=O)[C@H](Cc1ccccc1)NC(=O)[C@H](CC(=O)O)NC(=O)[C@H](CCCNC(=N)N)NC(=O)[C@H](C)NC(=O)[C@H](CCCNC(=N)N)NC(=O)[C@H](CCCCNC(=O)CC[C@H](NC(=O)CC[C@H](NC(=O)COCCOCCNC(=O)COCCOCCNC(=O)CC[C@H](NC(=O)CC[C@H](NC(=O)CCCCCCCCCCCCCCCCC(=O)O)C(=O)O)C(=O)O)C(=O)O)C(=O)O)NC(=O)[C@H](CO)NC(=O)[C@H](CC(=O)O)NC(=O)[C@H](CC(C)C)NC(=O)[C@](C)(Cc1ccccc1)NC(=O)[C@H](CCCCN)NC(=O)[C@H](CO)NC(=O)[C@@H](NC(=O)[C@H](CC(=O)O)NC(=O)[C@H](CO)NC(=O)[C@@H](NC(=O)[C@H](Cc1ccccc1)NC(=O)[C@@H](NC(=O)CNC(=O)[C@H](CCC(N)=O)NC(=O)C(C)(C)NC(=O)[C@@H](N)Cc1c[nH]cn1)[C@@H](C)O)[C@@H](C)O)C(C)C)C(C)C)C(=O)N[C@@H](CC(C)C)C(=O)N[C@@H](CCC(=O)O)C(=O)NC(C)(C)C(=O)NCC(=O)O
B5: Peptide 141 (peptide)
peptide: H[Aib]QGTFTSDVSK[αMeF]LDSK([AEEA-AEEA-γGlu-C18 diacid])RAQDFVAWLLE[Aib]G-OH
modifications: N-terminus assumed
SMILES: CC(C)C[C@H](NC(=O)[C@H](Cc1c[nH]c2ccccc12)NC(=O)[C@H](C)NC(=O)[C@@H](NC(=O)[C@H](Cc1ccccc1)NC(=O)[C@H](CC(=O)O)NC(=O)[C@H](CCC(N)=O)NC(=O)[C@H](C)NC(=O)[C@H](CCCNC(=N)N)NC(=O)[C@H](CCCCNC(=O)COCCOCCNC(=O)COCCOCCNC(=O)CC[C@H](NC(=O)CCCCCCCCCCCCCCCCC(=O)O)C(=O)O)NC(=O)[C@H](CO)NC(=O)[C@H](CC(=O)O)NC(=O)[C@H](CC(C)C)NC(=O)[C@](C)(Cc1ccccc1)NC(=O)[C@H](CCCCN)NC(=O)[C@H](CO)NC(=O)[C@@H](NC(=O)[C@H](CC(=O)O)NC(=O)[C@H](CO)NC(=O)[C@@H](NC(=O)[C@H](Cc1ccccc1)NC(=O)[C@@H](NC(=O)CNC(=O)[C@H](CCC(N)=O)NC(=O)C(C)(C)NC(=O)[C@@H](N)Cc1c[nH]cn1)[C@@H](C)O)[C@@H](C)O)C(C)C)C(C)C)C(=O)N[C@@H](CC(C)C)C(=O)N[C@@H](CCC(=O)O)C(=O)NC(C)(C)C(=O)NCC(=O)O
B6: Peptide 144 (peptide)
peptide: H[Aib]QGTFTSDVSK[αMeF]LDSK([γGlu-γGlu-AEEA-AEEA-γGlu-γGlu-C18 diacid])RARDFVRWLLE[Aib]G-OH
modifications: N-terminus assumed
SMILES: CC(C)C[C@H](NC(=O)[C@H](Cc1c[nH]c2ccccc12)NC(=O)[C@H](CCCNC(=N)N)NC(=O)[C@@H](NC(=O)[C@H](Cc1ccccc1)NC(=O)[C@H](CC(=O)O)NC(=O)[C@H](CCCNC(=N)N)NC(=O)[C@H](C)NC(=O)[C@H](CCCNC(=N)N)NC(=O)[C@H](CCCCNC(=O)CC[C@H](NC(=O)CC[C@H](NC(=O)COCCOCCNC(=O)COCCOCCNC(=O)CC[C@H](NC(=O)CC[C@H](NC(=O)CCCCCCCCCCCCCCCCC(=O)O)C(=O)O)C(=O)O)C(=O)O)C(=O)O)NC(=O)[C@H](CO)NC(=O)[C@H](CC(=O)O)NC(=O)[C@H](CC(C)C)NC(=O)[C@](C)(Cc1ccccc1)NC(=O)[C@H](CCCCN)NC(=O)[C@H](CO)NC(=O)[C@@H](NC(=O)[C@H](CC(=O)O)NC(=O)[C@H](CO)NC(=O)[C@@H](NC(=O)[C@H](Cc1ccccc1)NC(=O)[C@@H](NC(=O)CNC(=O)[C@H](CCC(N)=O)NC(=O)C(C)(C)NC(=O)[C@@H](N)Cc1c[nH]cn1)[C@@H](C)O)[C@@H](C)O)C(C)C)C(C)C)C(=O)N[C@@H](CC(C)C)C(=O)N[C@@H](CCC(=O)O)C(=O)NC(C)(C)C(=O)NCC(=O)O
B7: Peptide 137 (peptide)
peptide: H[Aib]QGTFTSDVSK[αMeF]LDSK([γGlu-γGlu-AEEA-AEEA-γGlu-γGlu-C18 diacid])RAQDFVRWLLEG[Aib]-OH
modifications: N-terminus assumed
SMILES: CC(C)C[C@H](NC(=O)[C@H](CC(C)C)NC(=O)[C@H](Cc1c[nH]c2ccccc12)NC(=O)[C@H](CCCNC(=N)N)NC(=O)[C@@H](NC(=O)[C@H](Cc1ccccc1)NC(=O)[C@H](CC(=O)O)NC(=O)[C@H](CCC(N)=O)NC(=O)[C@H](C)NC(=O)[C@H](CCCNC(=N)N)NC(=O)[C@H](CCCCNC(=O)CC[C@H](NC(=O)CC[C@H](NC(=O)COCCOCCNC(=O)COCCOCCNC(=O)CC[C@H](NC(=O)CC[C@H](NC(=O)CCCCCCCCCCCCCCCCC(=O)O)C(=O)O)C(=O)O)C(=O)O)C(=O)O)NC(=O)[C@H](CO)NC(=O)[C@H](CC(=O)O)NC(=O)[C@H](CC(C)C)NC(=O)[C@](C)(Cc1ccccc1)NC(=O)[C@H](CCCCN)NC(=O)[C@H](CO)NC(=O)[C@@H](NC(=O)[C@H](CC(=O)O)NC(=O)[C@H](CO)NC(=O)[C@@H](NC(=O)[C@H](Cc1ccccc1)NC(=O)[C@@H](NC(=O)CNC(=O)[C@H](CCC(N)=O)NC(=O)C(C)(C)NC(=O)[C@@H](N)Cc1c[nH]cn1)[C@@H](C)O)[C@@H](C)O)C(C)C)C(C)C)C(=O)N[C@@H](CCC(=O)O)C(=O)NCC(=O)NC(C)(C)C(=O)O

Each binder was assayed against human GLP-1 receptor (human, UniProt P43220) (assay: cell-based or functional assay).

Binder	cAMP production EC50
B1	59.4 pM
B2	19.1 pM
B3	104 pM
B4	45.2 pM
B5	264 pM
B6	45.2 pM
H[Aib]QGTFTSDVSK[αMeF]LDSK([γGlu-γGlu-AEEA-AEEA-γGlu-γGlu-C20 diacid])RAQDFVRWLLE[Aib]G-OH [Peptide 139]	630 pM
B7	143 pM

The binders below were run against human glucagon receptor (human, UniProt P47871) (assay: cell-based or functional assay).

Binder	cAMP production EC50
B1	108 pM
B2	32.6 pM
B3	184 pM
B4	509 pM
B5	392 pM
B6	702 pM
H[Aib]QGTFTSDVSK[αMeF]LDSK([γGlu-γGlu-AEEA-AEEA-γGlu-γGlu-C20 diacid])RAQDFVRWLLE[Aib]G-OH [Peptide 139]	984 pM
B7	268 pM

From US12630600B2 (MEDIMMUNE LIMITED, priority 2022, dated 2026)
